Experiment: yeast display, Sf9 membrane polyspecificity reagent, FACS + sequencing; frameworks hold sequencing errors
Outline: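 Galactose-induced (36–48 hours) yeast carrying a synthetic nanobody display library were exposed to 10% biotinylated, detergent-solubilized Sf9 membrane reagent at 4 °C for 1 hour. FACS followed streptavidin microbead enrichment, using low and high (top ~1%) gates for expression (anti-HA) and reagent binding (streptavidin). Colony PCR, MiSeq 2 × 250 sequencing and CDR-length filtering followed. Labels for polyreactivity reflect the gate of origin.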

| Sequence | polyreactivity (PSR sort gate) |
| --- | --- |
| QDQLVESGGGVVQAGGSLRLSCAASGRISIWYAMGWYRQAPGKERELVARISTSSGRTYYADSVKGRFTISRDNAKNTVYLQMNSLKPEDTAVYYCNAAGYRIYFSTRYDYWGQGTQVTVSS | high polyreactivity |
| QDQLVESGVGLVQAGGSLRLSCAASGSIFHGNAMGWYRQAPGKERELVATISSGGSTYYADSVKGRFTISRDNAKNTVYLQMNSLKPEDTAVYYCAAERFWPYKSYYWGQGTQVTVSS | low polyreactivity |
| QVQLVESGGGLVQAGGSLRLSCAASGFISPGYAMGWYRQAPGKERELVAAISVNGGDTYYADSVKGRFTISRDNAKNTVYLQMYSLKPEDTAVYYCAAERGVDDSARYGDYDYWGQGTQVTVSS | low polyreactivity |
| QVQLVESGGGLVQAGGSLRLSCAASGLTFPFYTMGWYRQAPGKERELVAAISRRGGSTYYADSVKGRFTISRDNAKNTDYLQMNSMKPVDTAVYYCAADKYSWYDYWGQGTEVTVSS | low polyreactivity |
| HVQPQESGGGLVQAGGSLRLSCAASGTISADYKMGWYRQAPGKEREFVAANAFGAFTNYADSVKGRFTISRDIAKNTVYLQMNSLKPEDTAVYYCAADLYYYAYDYWGQGTQVTVSS | high polyreactivity |
| QVQLVESGGGLVQAGGSLRLSCAASGRTFASYDMGWYRQEPGKERELVAAISVSGDSTYYADSVKGRFTISRDNAKNTFYLQMNSLKPEDTAVYYCNAEAQDYDHDYWGQSTQVTVSS | low polyreactivity |
| QVQLVESGGGLVQAGGSLRLSCGASGSIRANMGSYRQAPGKETELVAVITTSGASTSYAVSVKGRFTISRDNAKNTVYLQMNRLKPEDTAVYYCAADIYYYPHTYYRDGYYYWGQGSQVTVSS | low polyreactivity |
| QVQLVESGGGLVQAGGSLRLSCAASGRIFDQYAMGWYRQAPGKERELVAAITSGGSTYYADSVKGRFTISRDNAKNTVYLQMNSLKPEDTAVYYCAAEWQWYGYVLYKYYYWGQGTQVTVSS | high polyreactivity |
| QVQLVESGGGLVQAGGSLRLSCAASGRIFPYYAMGWYIQAPGKERELVAAIDGIGDTTYYADSVKGRFTISRDNAKNTVYLQMNSLKPEDTAVYYCNADGDAYYWGSYDEEDYWGQGTQVTVSS | low polyreactivity |
| QVQLVESGGGLVQAGGSLRLSCAASGYIFERTAMGWYRQAHGKERELVAAITDDGDDTYYADSVKGRFTISRDNAKNTVYLQMNSLKPEDTAVFYCAKDLYYGDYYYWGQGTQVTVSS | low polyreactivity |
| QVQLQERGGGLVQAGGSLCLTCEASGTIFYDGDMGLYRQAPGKEREFVAAINPGGSAYYADSVKGRLPLAAITHTVYLQMFSLKPEDTAVYYCAAEQITGWSRVWVSWYDYWGQGTQVTVSS | low polyreactivity |
| QVQLVESGGGLVQAGGSLRLSCAASGFTNAMGWYRQAPGKERELVAAISYSGDSTNYADSVKGRFTISRDNAKNTVYLQMNSLKPEDSAVYYCNASSPYDYDWGQGTQVTVSS | low polyreactivity |
| QVQLVESGAGLVKAGGSLRLSCAASGRTLTGNDMGWYRQAPGKERELVAAITARGGSTYYADSVKGRFTISRDNAKNTVYLQMNSLKPEDTAVYYGATLPVRIRRDYWGQGTQVTVSS | high polyreactivity |
| QVQLQESGGVLVQAVDRQRLSCAASGNIFLFTDMGWYRQAPGKERELVAAINAGSTTYYADSVKGRFTISRDNAKNTVYLQMNSLNPEDTEVYYCAVYYLGSGTFGYWGQGAQVTVSS | high polyreactivity |
| QVQLVESGGGLVQAGGILRLSCAASGRTLDCNAMGWYRQAPGKERELDAAITVTGSSTYYADSVKGRFTISRDNAKNTVYLQMNSLKPEDTAVYYCAKASGGDVRYSYSYRMDYWGQGTQVTVSS | low polyreactivity |
| QVQLVESGGGLVQAGGSLRLSCAASGSTFPPNAMGWYRQAPGKERELVAGINGSGGRTYYADSVKGRFTISRDNAKNTVYLQMNSMKPEDTAVYYCATRLRSEYYYNKWYYHWGQGTQVTVSS | high polyreactivity |
| QEQLQESGGGLGQAGGSLRLSCAASGSISSDVLMGWHRQAPGKERELVAAIGIGANTYYADSVKGRFTISRDNAKNTVYPQMNSLKPEDTAVYYCATGRYSGADNYWGQGTQVTVSS | high polyreactivity |

From the nanobody polyreactivity screen of Harvey et al. (2022)
